Test results published in US20160271230A1 (UNIVERSITY HEALTH NETWORK, published 2016).
No end group written: not given here.

Columns and labels:
[1] = target: T1, Neogenin (full-length, 180 kDa) (chick, UniProt Q90610 1-1443); test: cell-based or functional assay
T1 construct: Endogenous Neogenin of chick brain membranes, retinal axons and tecta, or Neogenin transfected into HEK293 cells; in Western blots it stood denatured
T1 sequence: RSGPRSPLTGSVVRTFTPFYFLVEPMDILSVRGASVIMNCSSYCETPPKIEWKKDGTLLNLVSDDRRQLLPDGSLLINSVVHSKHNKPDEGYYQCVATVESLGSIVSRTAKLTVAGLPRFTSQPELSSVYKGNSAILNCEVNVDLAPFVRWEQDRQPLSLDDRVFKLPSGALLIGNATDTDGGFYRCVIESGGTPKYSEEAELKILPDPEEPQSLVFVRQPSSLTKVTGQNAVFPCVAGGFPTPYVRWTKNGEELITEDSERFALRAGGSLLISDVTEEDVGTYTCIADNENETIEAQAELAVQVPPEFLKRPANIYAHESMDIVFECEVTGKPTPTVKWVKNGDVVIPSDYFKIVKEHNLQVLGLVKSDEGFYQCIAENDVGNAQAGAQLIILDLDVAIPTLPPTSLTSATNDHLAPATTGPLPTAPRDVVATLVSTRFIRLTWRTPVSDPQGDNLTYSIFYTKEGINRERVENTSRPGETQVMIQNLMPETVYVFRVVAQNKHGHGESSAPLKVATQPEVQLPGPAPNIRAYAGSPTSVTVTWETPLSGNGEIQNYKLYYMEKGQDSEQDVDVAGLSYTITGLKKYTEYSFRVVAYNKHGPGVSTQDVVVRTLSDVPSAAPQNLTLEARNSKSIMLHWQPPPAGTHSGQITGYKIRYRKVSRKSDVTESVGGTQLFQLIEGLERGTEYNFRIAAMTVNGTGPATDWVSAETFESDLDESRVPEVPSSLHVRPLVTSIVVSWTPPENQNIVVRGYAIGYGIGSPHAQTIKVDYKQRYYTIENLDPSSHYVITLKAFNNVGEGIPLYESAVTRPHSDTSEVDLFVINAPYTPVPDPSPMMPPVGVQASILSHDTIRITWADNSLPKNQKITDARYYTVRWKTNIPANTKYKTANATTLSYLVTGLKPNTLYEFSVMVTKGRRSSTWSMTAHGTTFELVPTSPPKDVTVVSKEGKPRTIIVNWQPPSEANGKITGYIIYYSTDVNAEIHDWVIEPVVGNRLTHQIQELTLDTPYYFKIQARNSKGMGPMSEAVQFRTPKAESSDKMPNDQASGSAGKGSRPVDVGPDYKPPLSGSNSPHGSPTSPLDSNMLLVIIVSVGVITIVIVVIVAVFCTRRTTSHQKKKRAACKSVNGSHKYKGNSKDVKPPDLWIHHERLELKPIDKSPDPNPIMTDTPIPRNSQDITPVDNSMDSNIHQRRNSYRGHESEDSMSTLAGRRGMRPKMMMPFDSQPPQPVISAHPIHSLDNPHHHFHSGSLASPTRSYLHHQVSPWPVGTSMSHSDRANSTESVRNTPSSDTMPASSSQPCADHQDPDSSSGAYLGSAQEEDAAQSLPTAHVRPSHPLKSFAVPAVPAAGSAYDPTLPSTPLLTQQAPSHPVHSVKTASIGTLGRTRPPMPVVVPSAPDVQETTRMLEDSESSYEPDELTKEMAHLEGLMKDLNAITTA

[2] = target: T2, His-tagged 4Ig-domain of Neogenin (Gallus gallus, UniProt Q90610 1-383); test: plate binding assay, AP-tagged fragment on coated His-tagged 4Ig-domain (FIG. 17C)
T2 construct: Secreted from transfected cells, purified on Ni-NTA; also called His-4Ig; Neogenin-4Ig; not shown: 6-His tag at the N-terminus; myc and 6-His tags of the pSectag 2B vector at the C-terminus
T2 sequence: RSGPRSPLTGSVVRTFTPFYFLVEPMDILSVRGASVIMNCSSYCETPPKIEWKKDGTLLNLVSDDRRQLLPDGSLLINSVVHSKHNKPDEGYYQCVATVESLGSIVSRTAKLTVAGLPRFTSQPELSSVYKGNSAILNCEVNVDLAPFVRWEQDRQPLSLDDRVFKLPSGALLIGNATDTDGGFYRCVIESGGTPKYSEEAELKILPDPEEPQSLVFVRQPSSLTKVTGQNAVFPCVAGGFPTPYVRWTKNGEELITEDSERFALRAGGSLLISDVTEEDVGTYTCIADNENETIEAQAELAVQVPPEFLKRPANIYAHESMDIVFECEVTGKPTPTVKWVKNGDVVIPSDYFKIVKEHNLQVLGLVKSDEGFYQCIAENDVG
Protocol: (§1) Using a 96-well microtiter plate (Corning Incorporated), wells were coated with 100 μl (10 μg/mL) of Poly-L-Lysine at 4° C. overnight. Wells were then washed three times with 100 μl of PBST (+0.02% Tween). 50 μl (2.5 μg/mL) of His-tagged: Full-length Neogenin; 4 Ig Neogenin; and FNIII Neogenin were coated onto each well for 1 hour at 37° C. Following three washes of 100 μl PBST, each well was then blocked with 300 μl of 3% BSA in PBST for 1 hour at 37° C. 50 μl (1.0 μg/mL) AP-tagged: N-RGMa (28-73); N-RGMa (28-54); N-RGMa (40-62); N-RGMa (54-73); N-RGMa (54-62) in 1% BSA+PBST was then added to each well and incubated at 37° C. for 1 hour. Each well was washed thoroughly three times with 100 μl PBST followed by subsequent equilibration of each well with Alkaline Phosphatase (AP) developing buffer (100 mM NaHCO₃, 1 mM MgCl₂). The reaction was developed using AP developing buffer supplemented with, p-nitrophenyl phosphate (pNPP)(Sigma-Aldrich) and allowed to develop until color development. The reaction was stopped with the addition of 50 μl (0.1M) NaOH. The absorbance of each reaction was measured using a microplate autoreader (BIO-TEK Instruments Inc.) at […] wavelength. […]

[3] = target: T3, 6FNIII-domain of Neogenin fused to alkaline phosphatase (Gallus gallus, UniProt Q90610 429-1036); test: ELISA with AP fusions of Neogenin domains
T3 construct: also called 6FNIII-AP; fibronectin domain; not shown: alkaline phosphatase (AP)
T3 sequence: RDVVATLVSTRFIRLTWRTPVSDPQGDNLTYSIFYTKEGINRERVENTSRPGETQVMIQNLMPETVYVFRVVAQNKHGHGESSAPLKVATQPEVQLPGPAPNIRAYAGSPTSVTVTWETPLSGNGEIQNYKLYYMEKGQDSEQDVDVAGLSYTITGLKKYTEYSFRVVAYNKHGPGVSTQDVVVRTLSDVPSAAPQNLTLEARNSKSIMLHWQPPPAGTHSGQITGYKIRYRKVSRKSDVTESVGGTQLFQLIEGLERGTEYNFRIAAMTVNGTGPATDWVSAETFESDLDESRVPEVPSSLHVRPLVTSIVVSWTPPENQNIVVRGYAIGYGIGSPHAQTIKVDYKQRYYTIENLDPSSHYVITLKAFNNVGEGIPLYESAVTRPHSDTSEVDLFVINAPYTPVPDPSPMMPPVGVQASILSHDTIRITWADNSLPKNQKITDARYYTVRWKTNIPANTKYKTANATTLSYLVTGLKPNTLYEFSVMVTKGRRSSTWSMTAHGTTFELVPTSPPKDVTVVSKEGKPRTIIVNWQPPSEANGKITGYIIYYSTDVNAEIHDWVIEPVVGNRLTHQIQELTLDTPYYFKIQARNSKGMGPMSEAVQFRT

[4] = target: T4, His-tagged 6FNIII-domain of Neogenin (Gallus gallus, UniProt Q90610 429-1036); test: complementary plate assay, RGMa peptides fused with AP on coated Neogenin domains (FIG. 9)
T4 construct: also called His-6FNIII; His-FNIII; not shown: His tag
T4 sequence: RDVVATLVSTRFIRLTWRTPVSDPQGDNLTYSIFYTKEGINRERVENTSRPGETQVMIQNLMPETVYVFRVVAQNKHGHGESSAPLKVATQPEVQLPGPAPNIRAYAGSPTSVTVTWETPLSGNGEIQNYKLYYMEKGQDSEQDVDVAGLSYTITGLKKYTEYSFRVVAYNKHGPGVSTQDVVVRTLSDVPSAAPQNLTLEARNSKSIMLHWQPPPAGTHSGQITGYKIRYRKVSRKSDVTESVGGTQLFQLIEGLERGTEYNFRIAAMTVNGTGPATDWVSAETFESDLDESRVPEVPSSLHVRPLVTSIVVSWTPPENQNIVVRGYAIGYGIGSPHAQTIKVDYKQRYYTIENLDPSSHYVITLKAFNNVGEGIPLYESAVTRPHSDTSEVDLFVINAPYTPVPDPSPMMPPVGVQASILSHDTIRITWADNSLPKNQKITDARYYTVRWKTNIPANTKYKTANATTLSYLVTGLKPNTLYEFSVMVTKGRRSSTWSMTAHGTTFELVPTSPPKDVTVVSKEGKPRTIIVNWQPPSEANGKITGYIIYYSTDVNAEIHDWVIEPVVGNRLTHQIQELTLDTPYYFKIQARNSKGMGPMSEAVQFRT
Protocol: (A) Different RGMa-AP proteins were incubated on wells coated with the 4Ig 6FNIII or BSA. […] Data were average±SEM (n=3 independent experiments), *p<0.005. (B) Quantification of a binding assay where 4Ig-AP and 6FNIII-AP proteins were assayed on wells coated with proteins from different RGMa regions. […] C-RGMa proteins and full length RGMa only bound 6FNIII. Data were average±SEM (n=3 independent experiments), *p<0.005. […] Quantification of a binding assay where N-RGMa-AP was assayed on wells coated with proteins DCC-4Ig and Neogenin-4Ig. In this experiment Neogenin-4Ig but not DCC-4Ig interacted with N-Raft-AP. Data were average±SEM (n=4 independent experiments), *p<0.005. (D) Cis-interaction between the 4Ig domain of Neogenin and N-Raft is required for localization of Neogenin in lipid rafts. HEK-293 cells were transfected with Neogenin and RGMa constructs. BMP2 (100 nM) was added to the medium 1 hour before cells were collected. Western blotting was performed following lipid raft fractionation. Flotillin was used as a marker for lipid raft fractions, whereas the transferrin receptor (TfR) was used as a marker for heavy membrane-fractions. Every experiment was repeated twice. […] In the first set of experiments, cells were only transfected with Neogenin. […]

[5] = target: T3, 6FNIII-domain of Neogenin fused to …; test: binding assay, 4Ig-AP and 6FNIII-AP on wells coated with RGMa proteins (FIG. 9B)
[6] = target: T5, 4Ig-domain of Neogenin fused to alkaline phosphatase (Gallus gallus, UniProt Q90610 1-383); test: ELISA with AP fusions of Neogenin domains
T5 construct: also called 4Ig-AP; not shown: alkaline phosphatase (AP)
T5 sequence: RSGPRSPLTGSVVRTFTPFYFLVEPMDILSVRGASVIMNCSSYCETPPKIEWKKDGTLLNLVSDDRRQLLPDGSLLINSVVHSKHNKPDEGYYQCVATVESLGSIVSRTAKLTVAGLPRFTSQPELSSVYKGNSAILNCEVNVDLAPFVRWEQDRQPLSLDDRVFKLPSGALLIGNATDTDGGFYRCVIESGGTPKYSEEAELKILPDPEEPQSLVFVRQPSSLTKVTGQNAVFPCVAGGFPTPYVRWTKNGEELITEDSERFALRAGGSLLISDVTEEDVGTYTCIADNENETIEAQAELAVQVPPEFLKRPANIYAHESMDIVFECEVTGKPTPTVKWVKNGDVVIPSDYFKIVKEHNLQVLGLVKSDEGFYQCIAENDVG

[7] = target: T1, Neogenin (full-length, 180 kDa); test: told in a figure legend; assay not named there (peptide also used on beads in the pull-down of FIG. 2B)
[8] = target: T2, His-tagged 4Ig-domain of Neogenin; test: plate binding assay, AP-tagged fragments on coated His-tagged Neogenin proteins (FIG. 17C)
Protocol: as §1

“RGMa on the cell membrane (from UniProt Q8JG54 150-404) (ligand)” gave an intensity correlation quotient (co-localization in growth cones, immunofluorescence) [1] of 0.32.

B1: N-RGMa (28-54aa), AP-tagged (peptide)
chain: SPCKILKCNSEFWAATSGSHHLGAEET
modifications: cysteine pairing not given here; also: alkaline phosphatase tag, sequence and position not given here
notes: not shown: alkaline phosphatase tag of the Psectag2B-AP plasmid
B1: no binding (tested: 1.0 µg/mL) [2].

B2: N-Raft peptide (amino acids 28-73 of RGMa), His-tagged (peptide)
peptide: SPCKILKCNSEFWAATSGSHHLGAEETPEFCTALRAYAHCTRRTAR
notes: also called N-RGMa^28-73; N-RGMa28-73; not shown: 6-His tag at the N-terminus
B2: no binding [3].

B3: N-Raft fused with alkaline phosphatase (peptide)
chain: SPCKILKCNSEFWAATSGSHHLGAEETPEFCTALRAYAHCTRRTAR
modifications: cysteine pairing not given here; also: alkaline phosphatase tag, sequence and position not given here
notes: also called N-Raft-AP; N-RGMa-AP; not shown: alkaline phosphatase tag of the Psectag2B-AP plasmid
B3: no binding [4].

B4: N-inh peptide (amino acids 77-113 of RGMa), His-tagged (peptide)
peptide: GDLAYHSAVHGIDDLMVQHNCSKDGPTSQPRLRTLPP
notes: not shown: 6-His tag at the N-terminus; myc tag and 6-His tag at the C-terminus
B4: binds [5]; no binding [6].

B5: N-RGMa (54-62aa), AP-tagged (peptide)
chain: TPEFCTALR
modifications: also: alkaline phosphatase tag, sequence and position not given here
notes: as for B1
B5: no binding (tested: 1.0 µg/mL) [2].

GAEETPEFCTALRAYAHCTRRTARTCRGDLAYHSAVHGIDDLMVQHNCSK (not shown: 6-His tag at the N-terminus) [N-RGMa^50-99 control peptide (amino acid residues 50-99 of RGMa)]: no binding [7].

B6: N-RGMa (40-62aa), AP-tagged (peptide)
chain: WAATSGSHHLGAEETPEFCTALR
modifications: also: alkaline phosphatase tag, sequence and position not given here
notes: as for B1
B6: binds [8].

B7: N-RGMa (54-73aa), AP-tagged (peptide)
chain: TPEFCTALRAYAHCTRRTAR
modifications: cysteine pairing not given here; also: alkaline phosphatase tag, sequence and position not given here
notes: also called N-RGMa (55-73aa); not shown: alkaline phosphatase tag of the Psectag2B-AP plasmid
B7: binds [8].
